Columns and labels:
Assay in all cases: SEC; analytical gel filtration of affinity-purified 6xHis-tagged VP3s, Superdex-200 5/150 calibrated with catalase, serum albumin, ovoalbumine and chymotrypsinogen A; 20 mM Tris-HCl pH 7.5, 150 mM NaCl, 4°C, 0.5 ml/min
[1] = target: 6xHis-tagged IBDV VP3 Patch2 mutant (R159D, R168D, H198D, R200D) (Infectious bursal disease virus (IBDV))
[2] = target: 6xHis-tagged IBDV VP3 Patch1 mutant (K99D, R102D, K105D, K106D) (Infectious bursal disease virus (IBDV))
[3] = target: the molecule itself

6xHis-tagged IBDV VP3 Patch2 mutant (R159D, R168D, H198D, R200D) (natural protein)
stoichiometry N [1]: 2

6xHis-tagged IBDV VP3 Patch1 mutant (K99D, R102D, K105D, K106D) (natural protein)
stoichiometry N [2]: 2

B1: 6xHis-tagged full-length IBDV VP3 (wild type) (natural protein)
chain: ASEFKETPELESAVRAMEAAANVDPLFQSALSVFMWLEENGIVTDMANFALSDPNAHRMRNFLANAPQAGSKSQRAKYGTAGYGVEARGPTPEEAQREKDTRISKKMETMGIYFATPEWVALNGHRGPSPGQVKYWQNKREIPDPNEDYLDYVHAEKSRLASEEQILRAATSIYGAPGQAEPPQAFIDEVAKVYEINHGRGPNQEQMKDLLLTAMEMKHRNPRRALPKPKPKPNAPTQRPPGRLGRWIRTVSDEDLE
notes: VP3 of Infectious bursal disease virus (IBDV), the cut product of the viral polyprotein (pVP2-VP4-VP3); numbers count on: the VP3 polypeptide itself (C-terminal region printed as 222-258), not the polyprotein; also called VP3 WT; wild type IBDV VP3
stoichiometry N [3]: 2

— PMC3458112, “The VP3 Factor from Viruses of Birnaviridae Family Suppresses RNA Silencing by Binding Both Long and Small RNA Duplexes” (PLoS ONE, 2012)
